T1: human integrin alpha-2-mCherry expressed on C2C12 cells (human, UniProt P17301 30-1181)
T1 construct: whole, on cells; Transfected C2C12 cells fixed with 2% paraformaldehyde/PBS before staining; not shown: mCherry tag
T1 sequence (looked up): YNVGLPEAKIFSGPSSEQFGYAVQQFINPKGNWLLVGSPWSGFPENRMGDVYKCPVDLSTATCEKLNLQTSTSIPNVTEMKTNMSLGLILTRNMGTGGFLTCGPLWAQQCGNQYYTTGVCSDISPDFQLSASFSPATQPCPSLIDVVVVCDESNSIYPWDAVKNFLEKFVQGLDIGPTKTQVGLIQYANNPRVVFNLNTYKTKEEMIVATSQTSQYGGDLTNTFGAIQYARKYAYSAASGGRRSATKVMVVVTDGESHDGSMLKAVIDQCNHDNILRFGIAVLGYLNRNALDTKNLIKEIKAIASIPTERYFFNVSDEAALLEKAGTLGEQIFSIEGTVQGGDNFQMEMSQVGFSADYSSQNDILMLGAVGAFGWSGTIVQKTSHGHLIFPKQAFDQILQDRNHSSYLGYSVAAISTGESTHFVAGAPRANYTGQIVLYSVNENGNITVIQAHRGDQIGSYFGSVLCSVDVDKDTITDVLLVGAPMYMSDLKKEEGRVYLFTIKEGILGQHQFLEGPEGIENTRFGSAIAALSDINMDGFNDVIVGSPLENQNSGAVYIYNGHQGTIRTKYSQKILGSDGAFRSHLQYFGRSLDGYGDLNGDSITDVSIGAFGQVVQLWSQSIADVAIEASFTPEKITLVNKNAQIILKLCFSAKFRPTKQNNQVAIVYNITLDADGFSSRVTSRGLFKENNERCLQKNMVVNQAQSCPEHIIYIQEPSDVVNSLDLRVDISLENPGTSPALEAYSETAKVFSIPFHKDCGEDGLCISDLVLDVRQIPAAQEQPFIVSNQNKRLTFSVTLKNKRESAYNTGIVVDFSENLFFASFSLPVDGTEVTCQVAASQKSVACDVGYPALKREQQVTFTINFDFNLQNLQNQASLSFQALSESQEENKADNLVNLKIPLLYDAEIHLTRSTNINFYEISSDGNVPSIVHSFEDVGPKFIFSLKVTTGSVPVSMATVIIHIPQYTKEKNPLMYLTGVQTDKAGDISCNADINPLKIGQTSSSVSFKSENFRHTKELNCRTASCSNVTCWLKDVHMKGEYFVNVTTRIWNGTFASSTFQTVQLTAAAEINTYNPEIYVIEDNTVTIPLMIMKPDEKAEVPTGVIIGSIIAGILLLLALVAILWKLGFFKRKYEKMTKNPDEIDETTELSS

T2: chimeric human integrin alpha-2 carrying the alpha-11 I-domain, mCherry fusion, on C2C12 cells (human, UniProt P17301 30-168; Q9UKX5 161-355; P17301 367-1181)
T2 construct: also called chimeric alpha-11Ialpha2mCherry; not shown: mCherry tag
T2 sequence (looked up): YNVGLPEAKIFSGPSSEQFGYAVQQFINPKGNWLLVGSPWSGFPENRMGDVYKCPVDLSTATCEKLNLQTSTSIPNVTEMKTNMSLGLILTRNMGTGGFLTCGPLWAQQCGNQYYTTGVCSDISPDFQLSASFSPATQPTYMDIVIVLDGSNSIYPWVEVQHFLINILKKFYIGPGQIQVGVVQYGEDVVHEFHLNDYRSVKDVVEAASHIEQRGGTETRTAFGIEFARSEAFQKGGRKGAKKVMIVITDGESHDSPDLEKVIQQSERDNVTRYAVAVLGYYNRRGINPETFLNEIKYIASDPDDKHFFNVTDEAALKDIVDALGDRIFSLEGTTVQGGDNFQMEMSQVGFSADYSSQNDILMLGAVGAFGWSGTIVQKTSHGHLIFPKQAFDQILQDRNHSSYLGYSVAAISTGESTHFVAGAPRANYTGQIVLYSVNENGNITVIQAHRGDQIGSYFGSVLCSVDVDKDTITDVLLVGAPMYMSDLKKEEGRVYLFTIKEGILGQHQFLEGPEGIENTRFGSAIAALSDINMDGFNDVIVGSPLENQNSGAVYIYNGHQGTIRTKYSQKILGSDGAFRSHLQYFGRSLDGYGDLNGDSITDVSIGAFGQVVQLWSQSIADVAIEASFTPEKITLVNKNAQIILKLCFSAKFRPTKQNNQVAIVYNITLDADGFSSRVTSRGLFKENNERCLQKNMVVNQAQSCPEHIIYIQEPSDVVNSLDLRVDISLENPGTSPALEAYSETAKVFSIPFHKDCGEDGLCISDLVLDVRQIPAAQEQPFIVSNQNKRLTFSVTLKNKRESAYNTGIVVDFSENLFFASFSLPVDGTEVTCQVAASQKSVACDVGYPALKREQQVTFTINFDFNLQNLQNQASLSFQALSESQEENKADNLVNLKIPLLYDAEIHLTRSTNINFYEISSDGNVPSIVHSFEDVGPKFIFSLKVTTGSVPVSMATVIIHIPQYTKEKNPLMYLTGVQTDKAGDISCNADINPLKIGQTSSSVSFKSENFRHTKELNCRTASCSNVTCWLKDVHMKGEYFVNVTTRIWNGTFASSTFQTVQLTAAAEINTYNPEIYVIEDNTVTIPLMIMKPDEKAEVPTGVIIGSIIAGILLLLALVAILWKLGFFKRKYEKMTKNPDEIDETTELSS

T3: human integrin α11-EGFP expressed on C2C12 mouse myoblast cells (human, UniProt Q9UKX5 23-1188)
T3 construct: whole, on cells; Alpha chain fused to EGFP, expressed in mouse C2C12 cells, which express no human integrins; the beta-1 partner chain on these cells is not described; In the Western blot the cell lysate was used; also called C2C12-α11 EGFP; C2C12-hu α11-EGFP; not shown: EGFP tag
T3 sequence (looked up): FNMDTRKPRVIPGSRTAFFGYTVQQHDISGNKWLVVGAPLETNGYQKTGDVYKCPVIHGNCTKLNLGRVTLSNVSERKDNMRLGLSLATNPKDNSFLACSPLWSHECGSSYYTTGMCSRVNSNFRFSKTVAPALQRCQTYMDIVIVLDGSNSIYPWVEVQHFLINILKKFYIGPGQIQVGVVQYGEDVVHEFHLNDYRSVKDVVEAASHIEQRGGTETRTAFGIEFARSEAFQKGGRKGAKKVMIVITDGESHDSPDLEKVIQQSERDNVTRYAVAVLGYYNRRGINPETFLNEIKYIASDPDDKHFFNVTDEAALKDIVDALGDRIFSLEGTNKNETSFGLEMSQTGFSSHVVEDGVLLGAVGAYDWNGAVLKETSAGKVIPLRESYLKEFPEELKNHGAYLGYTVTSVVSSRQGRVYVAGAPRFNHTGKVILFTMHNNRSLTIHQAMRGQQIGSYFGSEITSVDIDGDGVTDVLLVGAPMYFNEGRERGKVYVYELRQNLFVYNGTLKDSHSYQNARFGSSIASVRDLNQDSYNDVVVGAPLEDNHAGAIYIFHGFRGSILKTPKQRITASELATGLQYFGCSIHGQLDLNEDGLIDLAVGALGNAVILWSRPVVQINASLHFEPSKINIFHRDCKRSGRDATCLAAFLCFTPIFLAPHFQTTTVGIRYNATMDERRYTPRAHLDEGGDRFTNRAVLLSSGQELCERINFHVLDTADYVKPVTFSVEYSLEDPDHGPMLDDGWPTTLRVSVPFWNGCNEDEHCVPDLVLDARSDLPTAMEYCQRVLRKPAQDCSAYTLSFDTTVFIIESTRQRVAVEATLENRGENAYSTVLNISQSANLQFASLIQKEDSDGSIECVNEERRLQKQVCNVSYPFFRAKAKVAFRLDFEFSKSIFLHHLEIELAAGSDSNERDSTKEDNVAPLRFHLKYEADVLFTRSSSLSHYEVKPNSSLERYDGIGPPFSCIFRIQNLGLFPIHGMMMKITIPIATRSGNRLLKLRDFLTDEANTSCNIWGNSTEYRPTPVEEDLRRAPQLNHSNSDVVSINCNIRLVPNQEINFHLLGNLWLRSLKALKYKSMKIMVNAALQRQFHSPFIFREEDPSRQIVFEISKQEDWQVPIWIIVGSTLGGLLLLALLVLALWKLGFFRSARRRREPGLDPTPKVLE

B1: monoclonal mouse antibody 203 E1H5 produced by the hybridoma deposited as DSM ACC3318 (antibody, V domains shown)
VH: QVQLKESGPGLVAPSQSLSITCTVSGFSLTNYAVHWVRQSPGKGLEWLGVIWSYGSTDYNAAFISKLSISKDNSKSQVFFTMSSLQADDTAIYYCARSQIYGGFYDFFDFWGQGTTLTVSS
VL: CDIQMTQTPSSLSASLGDRVTIICRASQDISNFLNWFQQKPDGTIKLLIYYSSRLHSGVPSRFSGSGSGTDYSLTISNLEQEDLATYFCQQGNTLPLTFGAGTKLELT
notes: Mouse anti-human alpha-11 IgG from a hybridoma (NT-HRM mice); used as hybridoma supernatant or mAb; also called 203E1H5 mAb; α11 203E1H5 mAb
B2: monoclonal mouse antibody 234 H11E8 produced by the hybridoma deposited as DSM ACC3319 (antibody, V domains shown)
VH: QVQLKESGPGLVAPSQSLSITCTVSGFSLTNSAVHWVRQSPGKGLEWLGVVWSYGSTDYNAAFISRLSITKDNSKSQVFFKMNSLQADDTAIYYCARSQIYADYYDYFDYWGQGTTLTVSS
VL: DIQMTQSTSSLSASLGDRVTISCRASQDISNFLNWSQQKPDGTVKLLIYYTSRLHSGVPSRFSGSGSGTDYSLTISNLEQEDIGTYFCQQGNTLPLTFGAGTKLELR
notes: Mouse anti-human alpha-11 IgG from a hybridoma (NT-HRM mice); used as hybridoma supernatant or mAb; constant regions are not; also called 234H11E8 mAb; α11 234H11E8 mAb

Experiments:
Experiment in all cases: flow cytometry on fixed transfected C2C12 cells
[1] = target: T1, human integrin alpha-2-mCherry …
Protocol: (§1) To identify the epitope of the deposited integrin alpha-11 monoclonal antibodies. C2C12 cells were transfected with plasmids containing cDNAs encoding human integrin alpha-2-mCherry, human integrin alpha-11-EGFP, chimeric alpha-11Ialpha2mCherry or chimeric alpha-21-alpha-11EGFP as shown in FIG. 4a. Transfection was conducted as described in the art. 2% paraformaldehyde/PBS fixed transfected C2C12 cells were incubated with either antibody 203E1H5, see FIG. 4b or with antibody 234H11E8, see FIG. 4c, mouse anti-human alpha-11 IgG antibodies according to the present invention and then incubated with conjugated goat-anti mouse IgG, Alexa Fluor® 647 and analysed using a FACS Accuri measuring the dye accordingly.

[2] = target: T2, chimeric human integrin alpha-2 …
Protocol: as §1

[3] = target: T3, human integrin α11-EGFP expressed on …
Protocol: as §1

Row | Binder | binding result [1] | binding result [2] | binding result [3]
1 | B1 | no binding | no binding | 
2 | B2 | no binding | no binding | binds

Reference: patent publication US20210079099A1 (VESTLANDETS INNOVASJONSSELSKAP, published 2021)
